According to patent US20220412989A1, “COMPOSITIONS AND METHODS FOR DETECTING CELLS UNDERGOING FERROPTOSIS USING AN ANTIBODY” (THE TRUSTEES OF COLUMBIA UNIVERSITY IN THE CITY OF NEW YORK, priority 2020, published 2022):

Target: T1, TfR1 in human brain tissue (Homo sapiens, UniProt P02786)
T1 construct: human HD and control brain tissues were fixed in 4% PFA for 24 h; from tissue; host or cells: post-mortem human brain (Huntington's disease and control)
Experiment: Staining of post-mortem human brain tissues
Conditions: Huntington's disease and control
Method: FIGS. 12A-12B show 3F3 FMA staining in human Huntington's disease brains and mouse tissues. In FIG. 12A, human HD and control brain tissues were fixed in 4% PFA for 24 h, perfused in 30% sucrose for 24 h, and stained with DAPI (nuclei, blue) and 3F3 FMA (red). The expression level of TfR1 is low. There was no difference between HD and control groups. In FIG. 12B, mouse liver tissues and mouse GBM tissues were fixed and stained with DAPI (nuclei, blue) and 3F3 FMA (red). 3F3 FMA was able to recognize mouse TfR1.
Tumor tissues were fixed in 4% paraformaldehyde (PFA) for 24 h at 4° C. followed by washing with PBS three times. The tissues were perfused in 30% sucrose for 24 h at 4° C. for cryo-protection. The samples were embedded in OCT cryostat sectioning medium, and then moved directly into a cryostat. After equilibration of temperature, frozen tumor tissues were cut into 5 μm thick sections. Tissue sections were mounted on to poly-L-lysine coated slides by placing the cold sections onto warm slides. […] All images were captured on a Zeiss LSM 800 confocal microscope at Plan-Apochromat 63x/1.40 Oil DIC objective with constant laser intensity for all analyzed samples. The intensity above threshold of the fluorescent signal of the bound antibodies was analyzed using NIH ImageJ software (ImageJ, RRID:SCR_003070). Data were expressed as fold change comparing with the vehicle.

T1 sequence (P02786 whole entry): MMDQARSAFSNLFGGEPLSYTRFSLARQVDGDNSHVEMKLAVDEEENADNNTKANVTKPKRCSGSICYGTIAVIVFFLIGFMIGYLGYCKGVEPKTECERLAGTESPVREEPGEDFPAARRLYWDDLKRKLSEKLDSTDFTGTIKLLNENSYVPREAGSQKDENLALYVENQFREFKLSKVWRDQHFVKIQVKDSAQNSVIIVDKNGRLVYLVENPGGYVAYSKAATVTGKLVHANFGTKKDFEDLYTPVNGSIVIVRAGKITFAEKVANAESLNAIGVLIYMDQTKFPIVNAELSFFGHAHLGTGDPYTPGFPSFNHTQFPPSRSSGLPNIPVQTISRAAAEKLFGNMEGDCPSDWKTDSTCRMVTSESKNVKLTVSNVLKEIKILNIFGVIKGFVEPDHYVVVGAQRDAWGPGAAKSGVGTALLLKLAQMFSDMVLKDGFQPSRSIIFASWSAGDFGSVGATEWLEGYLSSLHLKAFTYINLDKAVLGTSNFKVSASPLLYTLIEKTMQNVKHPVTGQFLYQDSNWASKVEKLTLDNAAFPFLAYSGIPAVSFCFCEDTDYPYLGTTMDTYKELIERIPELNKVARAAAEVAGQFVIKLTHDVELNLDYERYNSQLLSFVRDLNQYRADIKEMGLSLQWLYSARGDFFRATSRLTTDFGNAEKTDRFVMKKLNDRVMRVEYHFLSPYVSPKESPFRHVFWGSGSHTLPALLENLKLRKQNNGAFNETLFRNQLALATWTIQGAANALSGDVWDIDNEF

staining signal in human brain tissue: lack of signal
B1: 3F3-FMA: murine monoclonal IgG1 raised against ferroptotic membrane fractions; antigen is human transferrin receptor protein 1 (TfR1) (antibody, V domains shown)
VH: EVLLQQSGTELVRPGALVKLSCKASGFNIQDLYIHWVKQRPEQGLEWIGWIDPETDNTIYDPKFQGKASITADTSSNTAYLQLSSLTSEDTAMYYCSTGLLQWYFDVWGAGTAVTVSS
VL: DIVMTQSPSSLAMSIGQKVTMRCKSSQSLLNSYNQKNCLAWYQQKPGQSPKLLLYFVSTRESGVPDRFIGSGSGTDFTLTISSVQAEDLADYFCQQHYSTPLTFGAGTKLELK
